Experimental findings from patent US12286624B2, “Method for generating a gene editing vector with fixed guide RNA pairs” (Johann Wolfgang Goethe-Universität Frankfurt am Main, priority 2018, dated 2025) are described below.

One data set has as its system Cdk2. Description: Depletion of endogenous Cdk2 by fixed-pair gRNA constructs (immunoblot). The data set is classed as cell-based, human. The note with it: RPE1 cells, compared with either single gRNA. The protocol:
(§1) GFP-expressing hTERT-RPE1 cells were transduced with them for 48 hours, after which a selection pressure (puromycin) for another 4 days was applied before the cells were analyzed by FACS and immunoblotting for which wildtype (wt) and GFP-positive cells (GFP) served as controls. […] In addition, GFP deletion efficiency was confirmed by immunoblotting of GFP, confirming the FACS finding (FIG. 15b). Fluorescent proteins expressed in human cells reflect an artificial situation, the inventors therefore asked if endogenously expressed genes in RPE1 cells would similarly be depleted more efficiently by two gRNAs. To address this question, RPE1 cells were transduced with fixed-pair gRNA constructs encoding for NHT/NHT, NHT/Cdk2, Cdk2/NHT, or Cdk2/Cdk2.
Preparation of lysates and immunoblot analyses were performed as described previously using Tris lysis buffer (50 mM Tris-HCl (pH 7.8), 150 mM NaCl, 1% IGEPAL CA-630) containing 20 mM NaF, 20 mM β-glycerophosphate, 0.3 mM Na-vanadate, 20 μg/ml RNase A, 20 μg/ml DNase and 1/300 protease inhibitor cocktail (Sigma-Aldrich, P8340) and phosphatase inhibitor cocktail #2 (Sigma-Aldrich, P5726). […] Protein levels were visualized with Pierce ECL Western Blotting Substrate on a BioRad ChemiDoc MP imaging system and analyzed with Bio-Rad Image Lab software (version 4.1 build 16).

In data set [1] the test system is GFP-expressing hTERT-RPE1 cells. Description: GFP depletion by FACS after lentiviral transduction with enhanced 3Cs fixed-pair gRNA constructs. The data set is classed as cell-based, human. The note with it: transduced 48 hours, then puromycin selection another 4 days. The protocol: as §1
RPE1 cells were seeded at an appropriate density for each experiment with a maximal confluency of 60-70% in DMEM/F12 (Thermo Fisher Scientific), supplemented with 10% FBS and 1% penicillin-ptreptomycin (Sigma). At the day of transduction, polybrene was added to the media to a final concentration of 8 μg/mL, as well as viral supernatant according to the previously determined viral titer. The next morning, the media was replaced with fresh media and the cells were subjected to antibiotic selection or experimental analysis.
All samples were analyzed on a FACSCanto II flow cytometer (BD Biosciences), and data were processed by FlowJo software (FlowJo, LLC). Gating was carried out on the basis of viable and single cells that were identified on the basis of their scatter morphology.

B1: Cdk2/Cdk2: fixed-pair gRNA construct with two gRNAs targeting Cdk2 (nucleic acid)
guide: GAAAGGACGAAACACCGACAGGTTGCCAGTAAAAACAGTTTAGAGACGCTCGTCTCTAAACCTCCCGTCAACTTGTTTCTGCGAGGTACCCAAGCG
modifications: expressed or natural sequence
As for B1, the “depletion of endogenous Cdk2” value in the data set with Cdk2 is recorded as “more efficiently depleted”.

B2: GFP2-NHT: 3Cs fixed-pair construct of one GFP-targeting gRNA and one NHT control gRNA (nucleic acid)
guide: GAAAGGACGAAACACCGTCAGGATCAGGGTGTATGGCGTTTTAGAGCTATGCTTTTTTAAAAAAGCATAGCTCTAAAACCGATGTTGTGGCGGATCTTGCGAGGTACCCAAGCG
On to B2, for which the “GFP-positive cells by FACS” value in data set [1] is reported as “strong reduction of GFP-positive cells”.

B3: NHT-GFP2: 3Cs fixed-pair construct of one NHT control gRNA and one GFP-targeting gRNA (nucleic acid)
guide: GAAAGGACGAAACACCGGAAGGGCATCGACTTCAAGGGTTTTAGAGCTATGCTTTTTTAAAAAAGCATAGCTCTAAAACGCATGTTGTGGCGGATCTTGCGAGGTACCCAAGCG
On to B3, for which the “GFP-positive cells by FACS” value in data set [1] is “strong reduction of GFP-positive cells”.

B4: GFP2-GFP1: fixed-pair combination of two different GFP-targeting gRNAs (nucleic acid)
guide: GAAAGGACGAAACACCGGAAGGGCATCGACTTCAAGGGTTTTAGAGCTATGCTTTTTTAAAAAAGCATAGCTCTAAAACCGATGTTGTGGCGGATCTTGCGAGGTACCCAAGCG
modifications: expressed or natural sequence
notes: fixed-pair combination of two different GFP-targeting gRNAs
Regarding B4, the “GFP-positive cells by FACS” value in data set [1] was “below the detection limit”.
